Data taken from article PMC5372463, “Bacterial kinesin light chain (Bklc) links the Btub cytoskeleton to membranes” (Scientific Reports, 2017).

Target: T1, BtubA/B heterodimer (bacterial tubulin) from Prosthecobacter dejongeii (Prosthecobacter dejongeii, UniProt Q8GCC5 1-473; Q8GCC1 1-426)
T1 construct: The same preparation stood as soluble (non-polymerized) heterodimer or, in polymerization buffer with GTP, as filaments; the assay tells which; Construct was a gift from JM; Andreu; also called Btubs; Btub filaments; source: E. coli C41 (DE3), co-expressed from a bicistronic construct, purified (polymerization/depolymerization cycle, SEC)
T1 sequence (looked up) 1: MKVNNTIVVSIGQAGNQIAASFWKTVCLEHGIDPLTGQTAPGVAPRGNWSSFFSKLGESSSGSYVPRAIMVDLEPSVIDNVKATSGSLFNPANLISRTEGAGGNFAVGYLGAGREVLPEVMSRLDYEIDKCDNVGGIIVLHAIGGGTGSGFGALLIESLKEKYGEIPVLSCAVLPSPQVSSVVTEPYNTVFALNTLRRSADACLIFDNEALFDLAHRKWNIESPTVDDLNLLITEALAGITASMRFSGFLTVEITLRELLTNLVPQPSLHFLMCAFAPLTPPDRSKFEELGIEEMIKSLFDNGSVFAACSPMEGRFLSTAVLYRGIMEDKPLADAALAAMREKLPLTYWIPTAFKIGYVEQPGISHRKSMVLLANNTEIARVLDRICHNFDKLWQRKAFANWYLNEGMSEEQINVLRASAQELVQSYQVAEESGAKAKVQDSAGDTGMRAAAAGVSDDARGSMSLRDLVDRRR
T1 sequence (looked up) 2: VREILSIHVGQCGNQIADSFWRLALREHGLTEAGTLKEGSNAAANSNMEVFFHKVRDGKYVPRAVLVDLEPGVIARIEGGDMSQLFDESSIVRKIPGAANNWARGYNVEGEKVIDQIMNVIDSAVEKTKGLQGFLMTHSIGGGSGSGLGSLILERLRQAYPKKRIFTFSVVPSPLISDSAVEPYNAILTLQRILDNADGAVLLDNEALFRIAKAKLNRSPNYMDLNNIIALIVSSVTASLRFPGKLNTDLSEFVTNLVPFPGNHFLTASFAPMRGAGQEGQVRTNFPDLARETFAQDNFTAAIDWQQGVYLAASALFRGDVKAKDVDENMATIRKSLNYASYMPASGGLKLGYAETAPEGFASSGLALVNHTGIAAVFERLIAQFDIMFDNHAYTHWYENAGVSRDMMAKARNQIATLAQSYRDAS
Assay: co-sedimentation; 10 μM BtubA/B with 10 or 20 μM Bklc in polymerization buffer (20 mM TrisHCl pH 7.5, 300 mM potassium glutamate, 5 mM MgCl2, 1 mM EGTA, 2 mM GTP), 10 min 25 °C, 100.000 x g 30 min; pellet depolymerized at 4 °C (S2); densitometry of Coomassie gels
Details: both partners purified

- stoichiometry N: ~1 Bklc monomer per BtubA/B heterodimer
B1: Bacterial kinesin light chain (Bklc) from Prosthecobacter vanneervenii, C-terminal poly-histidine tag (natural protein, UniProt A8Y5U5 1-256, looked up)
chain: MDTALERQIASASRSVEEARRLAYHDPIRVGALVEQISVLADLRQKEGDFRKAESLYREALFRAQELRKQDPDLLTGIYSLLAHLYDRWGRMDKAAEFYELALKISAENGLEESDKVATIKNNLAMIFKQLRKFERAEGYYCEALETFQRLDGEQSARVASVYNNLGVLYYSHMDVDRAQVMHERALAIRQNLHEGQMDPADLSQTFINLGAVYKAAGDFQKAEACVDRAKRIRAAMNGYHPNPRRSASLLIDKSL
notes: Bklc (bacterial kinesin light chain), Prosthecobacter vanneervenii; Uniprot id A8Y5U5_9BACT; GenBank CAP16140.1; the bklc gene was expressed from pHis17; Construct was a gift from M. Pilhofer; Monomer by SEC and AUC; also called Bklc-His; source: E. coli C41 (DE3), purified (Ni-NTA, SEC); not shown: His-tag, C-terminal, kept
